Source: patent CN116003603A (CR BIO MEDICAL INC, dated 2023)
Where a chain is given by its changes, count along the chain named.

Key:
[1] = molecular target: T1, CLDN18.2 (on CLDN18.2过表达细胞, species not stated); test: flow cytometry, antibody titration on CLDN18.2 over-expressing cells, MFI (Table 2-2, headed P1530)
T1 construct: whole, on cells

[2] = molecular target: T2, CLDN18.2 (antigen of the ka/kd/KD measurement, species and form not stated); test: affinity measurement, method not described (Table 2-2, headed P1530)
[3] = molecular target: T2, CLDN18.2 (antigen of the ka/kd/KD …); test: affinity measurement, method not described
[4] = molecular target: T1, CLDN18.2 (on CLDN18.2过表达细胞, species not …); test: flow cytometry, antibody titration on CLDN18.2 over-expressing cells, MFI

T2 sequence (P56856 other isoform, or with tags, fused parts or gaps): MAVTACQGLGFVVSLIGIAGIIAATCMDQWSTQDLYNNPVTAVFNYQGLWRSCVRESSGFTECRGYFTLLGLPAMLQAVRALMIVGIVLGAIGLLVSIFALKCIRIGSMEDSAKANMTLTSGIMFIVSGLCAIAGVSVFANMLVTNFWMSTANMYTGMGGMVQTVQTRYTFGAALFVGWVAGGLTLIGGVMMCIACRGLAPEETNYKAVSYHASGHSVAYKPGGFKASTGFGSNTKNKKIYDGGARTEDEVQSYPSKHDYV

B1: CLDN-BC-P1530-hH1 (antibody, V domains shown)
VH: QVQLVESGGGLVQPGGSLRLSCAASRFTFSNYAMNWVRQAPGKGLEWVSSISGSGGSSYYADSVKGRFTISKDNSQNMLYLQMNSLRAEDTAVYYCAKADWKYGYYGMDVWGQGTTVTVSS
VL: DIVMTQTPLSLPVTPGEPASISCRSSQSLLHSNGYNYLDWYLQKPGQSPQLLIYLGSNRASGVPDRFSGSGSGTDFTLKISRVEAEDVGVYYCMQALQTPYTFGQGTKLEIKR
notes: also called P1530-IgG1
EC50 [1]: 0.62 mg/L
Kd [2]: 6.8 nM
koff [2]: 0.00355 s⁻¹
kon [2]: 523000 M⁻¹ s⁻¹

B2: CLDN-BC-P1531-hH1 (antibody, V domains shown)
VH: B1 VH with T116M
VL: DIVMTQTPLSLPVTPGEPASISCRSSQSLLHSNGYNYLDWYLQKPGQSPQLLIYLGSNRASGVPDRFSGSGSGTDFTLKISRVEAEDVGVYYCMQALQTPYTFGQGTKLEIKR
notes: also called CLN-P1531-hH1; P1531-IgG1
Kd [3]: 5.9 nM
koff [3]: 0.00293 s⁻¹
kon [3]: 497000 M⁻¹ s⁻¹
EC50 [4]: 0.69 mg/L
